We go through one molecule from article PMC2627783 (Biochemistry, 2008).

The target in this assay is T1, HscA (UniProt P0A6Z1 1-616).
T1 sequence (looked up): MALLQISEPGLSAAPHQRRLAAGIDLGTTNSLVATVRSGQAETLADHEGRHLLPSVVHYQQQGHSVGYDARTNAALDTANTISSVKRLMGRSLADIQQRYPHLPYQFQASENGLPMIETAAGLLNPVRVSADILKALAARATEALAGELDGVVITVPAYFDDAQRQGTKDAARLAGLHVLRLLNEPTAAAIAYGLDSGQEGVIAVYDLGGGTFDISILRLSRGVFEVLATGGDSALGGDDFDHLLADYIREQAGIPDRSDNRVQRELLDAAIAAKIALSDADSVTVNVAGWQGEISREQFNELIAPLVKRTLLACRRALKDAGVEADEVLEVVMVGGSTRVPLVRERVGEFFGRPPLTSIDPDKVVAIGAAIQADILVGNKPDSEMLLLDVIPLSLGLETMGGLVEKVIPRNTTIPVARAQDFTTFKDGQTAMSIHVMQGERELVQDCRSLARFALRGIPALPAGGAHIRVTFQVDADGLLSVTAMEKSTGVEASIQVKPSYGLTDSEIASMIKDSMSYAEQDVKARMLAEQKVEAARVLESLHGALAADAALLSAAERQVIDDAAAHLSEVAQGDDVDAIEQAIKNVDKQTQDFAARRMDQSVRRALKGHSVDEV
Description: cell-based or functional assay.

B1: HscB (wild type) (natural protein, E. coli, UniProt P0A6L9 1-171, looked up)
chain: MDYFTLFGLPARYQLDTQALSLRFQDLQRQYHPDKFASGSQAEQLAAVQQSATINQAWQTLRHPLMRAEYLLSLHGFDLASEQHTVRDTAFLMEQLELREELDEIEQAKDEARLESFIKRVKKMFDTRHQLMVEQLDNETWDAAADTVRKLRFLDKLRSSAEQLEEKLLDF
As for B1, the “HscA ATPase activity, 23 °C, in the absence of IscU: maximal stimulation” value was 4.4 fold.
